The target of test [1] is T1, Soluble IGF-1R (sIGF-1R), R&D Systems Cat. # 391-GR/CF (UniProt P08069 31-935, limits assumed).
T1 construct: extracellular domain
In words: phage ELISA. In general terms: ELISA stands for enzyme-linked immunosorbent assay.

The target in test [2] is T2, soluble human insulin receptor-immunoglobulin heavy chain chimera (sIR-Fc; Bass et al., 1996) (human, UniProt P06213 28-956, limits assumed).
T2 construct: extracellular domain; also called soluble IR (Bass construct); not shown: immunoglobulin heavy chain constant domains
Put plainly: phage ELISA.

B1: B6Hα-3-E7-IR (peptide)
peptide: GCAVVEEAERSRGDPFYHKLSELIQGC
As for B1, in test [1], the IGF-1R/IR comparison amounted to 4.3 and the “Ratio over Background” value is 5.6. In test [2], the IR/IGF-1R comparison was determined as 0.2 and the “Ratio over Background” value is 1.3.

B2: B6Hα-2-D1-IR (peptide)
peptide: GCEVIVEEGDSADPFYHKLSELCQGS
Turning to B2, in test [1], the IGF-1R/IR comparison came out at 4.2 and the “Ratio over Background” value was 5.4. Besides, in test [2], the IR/IGF-1R comparison is 0.2 and the “Ratio over Background” value stood at 1.3.

B3: B6Hα-4-G8-IR (peptide)
peptide: GGTKAVAKVGTRDDPFYHKLSELLQGS
For B3, in test [1], the IGF-1R/IR comparison is 3.6 and the “Ratio over Background” value stood at 6.1. For the same molecule, in test [2], the IR/IGF-1R comparison came to 0.3 and the “Ratio over Background” value is 1.7.

B4: 20E2A-3-A12-IGFR (peptide)
peptide: LSVALSFYDALGQLVAGEGRW
With B4, in test [1], the IGF-1R/IR comparison is 3.9 and the “Ratio over Background” value was 4.3. Further, in test [2], the IR/IGF-1R comparison is 0.3 and the “Ratio over Background” value came out at 1.1.

B5: H2CA-1-A3-IGFR (peptide)
peptide: APDPSDFQEIFYDWFVRQVSRMPGGG
Take B5: in test [1], the IGF-1R/IR comparison worked out at 5.1 and the “Ratio over Background” value was 3.8. In test [2], the IR/IGF-1R comparison worked out at 0.2 and the “Ratio over Background” value came out at 0.8.

B6: NNRPγ-4-A1-IR (peptide)
peptide: IIGGFYSYFNSVLRLGT
With B6, in test [1], the IGF-1R/IR comparison was 6 and the “Ratio over Background” value worked out at 10.9. In test [2], the IR/IGF-1R comparison stood at 0.2 and the “Ratio over Background” value amounted to 1.8.

B7: B6Hα-2-D6-IR (peptide)
peptide: GRTMAVMAAGGPDDPFYHKLSELVQGG
Regarding B7, in test [1], the IGF-1R/IR comparison was determined as 4.4 and the “Ratio over Background” value amounted to 4.4. Besides, in test [2], the IR/IGF-1R comparison turned out to be 0.2 and the “Ratio over Background” value was determined as 1.

B8: B6L-4-D7-IR (peptide)
peptide: AETSVQVGWIRLQSVWPGEHWNTVDPFYHKLSELLRGSGA
As for B8, in test [1], the IGF-1R/IR comparison came out at 3.4 and the “Ratio over Background” value came out at 4.8. Besides, in test [2], the IR/IGF-1R comparison was found to be 0.3 and the “Ratio over Background” value was 1.4.

B9: H2CA-4-F10-IGFR (peptide)
peptide: VNQSGSIHENFYDWFERQVSHQRGVR
Turning to B9, in test [1], the IGF-1R/IR comparison came out at 5.9 and the “Ratio over Background” value came out at 5.7. Also, in test [2], the IR/IGF-1R comparison stood at 0.2 and the “Ratio over Background” value was determined as 1.

B10: H2CA-2-B9-IGFR (peptide)
peptide: RAGSSDFHEDFYEWFVRQVSLSLKGK
As to B10, in test [1], the IGF-1R/IR comparison is 4.2 and the “Ratio over Background” value is 7. In test [2], the IR/IGF-1R comparison amounted to 0.2 and the “Ratio over Background” value amounted to 1.7.

B11: 20E2B-4-H9-IGFR (peptide)
peptide: RCQGTGFYTCIQELIGFGDPD
In the case of B11, in test [1], the IGF-1R/IR comparison was found to be 5.6 and the “Ratio over Background” value came out at 5.2. Also, in test [2], the IR/IGF-1R comparison was 0.2 and the “Ratio over Background” value was determined as 0.9.

B12: H2CA-3-C8-IGFR (peptide)
peptide: SSCDGAGHESFYEWFVRQVSGCRSV
For B12, in test [1], the IGF-1R/IR comparison stood at 4.8 and the “Ratio over Background” value stood at 5.6. In addition, in test [2], the IR/IGF-1R comparison was determined as 0.2 and the “Ratio over Background” value was determined as 1.2.

B13: H2CA-4-F6-IGFR (peptide)
peptide: AVRATRFDEAFYDWFVRQISDGQGNK
With B13, in test [1], the IGF-1R/IR comparison was 6.4 and the “Ratio over Background” value came to 7.3. In test [2], the IR/IGF-1R comparison is 0.2 and the “Ratio over Background” value was 1.1.

B14: B6Hα-3-E8-IR (peptide)
peptide: RGKTAAVIVGRPADPFYHKLSELLQGG
As to B14, in test [1], the IGF-1R/IR comparison turned out to be 4.8 and the “Ratio over Background” value turned out to be 5.3. In test [2], the IR/IGF-1R comparison was determined as 0.2 and the “Ratio over Background” value stood at 1.1.

B15: 20E2B-4-H8-IGFR (peptide)
peptide: PAGPCGFYCGLGLLLHGDQSP
On to B15, for which, in test [1], the IGF-1R/IR comparison stood at 5.9 and the “Ratio over Background” value was found to be 5.3. Also, in test [2], the IR/IGF-1R comparison was 0.2 and the “Ratio over Background” value came out at 0.9.

B16: 20E2A-3-D10-IGFR (peptide)
peptide: MMVVDGFYDALHQLVVAQSLG
Turning to B16, in test [1], the IGF-1R/IR comparison amounted to 3.9 and the “Ratio over Background” value stood at 6.9. In test [2], the IR/IGF-1R comparison is 0.3 and the “Ratio over Background” value came to 1.8.

B17: NNRPγ-4-A7-IR (peptide)
peptide: RFDPFYSYFVNLLGASA
On to B17, for which, in test [1], the IGF-1R/IR comparison worked out at 4.9 and the “Ratio over Background” value came to 6.3. In test [2], the IR/IGF-1R comparison came out at 0.2 and the “Ratio over Background” value turned out to be 1.3.

B18: 20E2B-3-C4-IGFR (peptide)
peptide: ASSASGFYELLQRLAGLGLEV
As for B18, in test [1], the IGF-1R/IR comparison was found to be 6.2 and the “Ratio over Background” value turned out to be 20.4. Also, in test [2], the IR/IGF-1R comparison was 0.2 and the “Ratio over Background” value is 3.3.

B19: 20C-3-E4-IGFR (peptide)
peptide: FFYRCLSRLLGGQLGSRLGLSCIGD
Take B19: in test [1], the IGF-1R/IR comparison was 6 and the “Ratio over Background” value came out at 7.7. Also, in test [2], the IR/IGF-1R comparison amounted to 0.2 and the “Ratio over Background” value came to 1.3.

B20: B6Hα-1-A3-IR (peptide)
peptide: SRAKVEAEMPDSGDPFYHKLSELLASG
As to B20, in test [1], the IGF-1R/IR comparison came out at 3.3 and the “Ratio over Background” value worked out at 2.6. In test [2], the IR/IGF-1R comparison was 0.3 and the “Ratio over Background” value was 0.8.

B21: 20E2B-1-A8-IGFR (peptide)
peptide: TLRSPTFYDWLEMVLTHGQGG
B21: in test [1], the IGF-1R/IR comparison worked out at 5 and the “Ratio over Background” value is 4.4. Also, in test [2], the IR/IGF-1R comparison came to 0.2 and the “Ratio over Background” value came out at 0.9.

B22: B6Hα-3-F10-IR (peptide)
peptide: GCVVEWQKWHGASDPFYHKLSELGGCS
As to B22, in test [1], the IGF-1R/IR comparison is 4.6 and the “Ratio over Background” value stood at 8.8. Also, in test [2], the IR/IGF-1R comparison stood at 0.2 and the “Ratio over Background” value worked out at 1.9.

B23: B6Hα-2-C10-IR (peptide)
peptide: SGAKVIVVTGDSGDPFYHKLSELLQGS
For B23, in test [1], the IGF-1R/IR comparison stood at 5.3 and the “Ratio over Background” value turned out to be 5.8. In test [2], the IR/IGF-1R comparison stood at 0.2 and the “Ratio over Background” value came out at 1.1.

B24: 20E2A-3-C7-IGFR (peptide)
peptide: VGTVAGFYDAIAQLVARASRV
With B24, in test [1], the IGF-1R/IR comparison stood at 5.1 and the “Ratio over Background” value was determined as 5.4. In addition, in test [2], the IR/IGF-1R comparison was found to be 0.2 and the “Ratio over Background” value stood at 1.1.

Values taken from patent US20070265189A1 (published 2007).
